Data from article PMC4611135.

Columns and labels:
[1] = target: DndE-His (Salmonella enterica serovar Cerro 87); experiment: pull-down; co-expression of dndDE with His tag on DndE (pDndDEH) in E. coli BL21 (DE3); nickel purification, 15% SDS-PAGE
[2] = target: DndCDE complex (Salmonella enterica serovar Cerro 87); experiment: SEC; DndCDE complex saturated with IscS, purified on Superdex 200; molar ratio by densitometry of the Coomassie-stained SDS-PAGE bands

Substance	stoichiometry N [1] [molar ratio]	stoichiometry N [2] [molar ratio]
DndD (natural protein)	1	
Strep-IscS (from UniProt P0A6B7 1-404) (natural protein)		1
